Experimental data taken from the supplement of paper PMC11246515.
± gives the standard deviation of the averaged measurements.

Assay: total protein half-life in vivo (active degradation + dilution); higher = more stable protein
[1] = E. coli NCM3722 delta-clpP delta-lon delta-hslV, growth: N-lim chemostat, doubling time 6 h
[2] = E. coli NCM3722 delta-clpP, growth: N-lim chemostat, doubling time 6 h
[3] = wild type E. coli NCM3722, growth: C-lim chemostat, doubling time 3 h
[4] = wild type E. coli NCM3722, growth: C-lim chemostat, doubling time 6 h
[5] = wild type E. coli NCM3722, growth: C-lim chemostat, doubling time 12 h
[6] = wild type E. coli NCM3722, growth: N-lim chemostat, doubling time 12 h
[7] = wild type E. coli NCM3722, growth: P-lim chemostat, doubling time 6 h
[8] = wild type E. coli NCM3722, growth: P-lim chemostat, doubling time 12 h
[9] = E. coli NCM3722 delta-lon, growth: N-lim chemostat, doubling time 6 h
[10] = E. coli NCM3722 delta-hslV, growth: N-lim chemostat, doubling time 6 h
[11] = E. coli NCM3722 delta-smpB, growth: N-lim chemostat, doubling time 6 h
[12] = wild type E. coli NCM3722, growth: N-lim chemostat, doubling time 6 h

Sequence	total protein half-life in vivo [1] [h]	total protein half-life in vivo [2] [h]	total protein half-life in vivo [3] [h]	total protein half-life in vivo [4] [h]	total protein half-life in vivo [5] [h]	total protein half-life in vivo [6] [h]	total protein half-life in vivo [7] [h]	total protein half-life in vivo [8] [h]	total protein half-life in vivo [9] [h]	total protein half-life in vivo [10] [h]	total protein half-life in vivo [11] [h]	total protein half-life in vivo [12] [h]
MKEKTIIIVGGGQAAAMAAASLRQQGFTGELHLFSDERHLPYERPPLSKSMLLEDSPQLQQVLPANWWQENNVHLHSGVTIKTLGRDTRELVLTNGESWHWDQLFIATGAAARPLPLLDALGERCFTLRHAGDAARLREVLQPERSVVIIGAGTIGLELAASATQRRCKVTVIELAATVMGRNAPPPVQRYLLQRHQQAGVRILLNNAIEHVVDGEKVELTLQSGETLQADVVIYGIGISANEQLAREANLDTANGIVIDEACRTCDPAIFAGGDVAITRLDNGALHRCESWENANNQAQIAAAAMLGLPLPLLPPPWFWSDQYSDNLQFIGDMRGDDWLCRGNPETQKAIWFNLQNGVLIGAVTLNQGREIRPIRKWIQSGKTFDAKLLIDENIALKSL	5.74 ± 1.6	1.04	3.07	2.51 ± 0.54	2.78 ± 0.14	1.3	1.03	2.31 ± 0.41	–	–	–	–
MKFDKPAGENPIDQLKVVGRPHDRIDGPLKTTGTARYAYEWHEEAPNAAYGYIVGSAIAKGRLTALDTDAAQKAPGVLAVITASNAGALGKGDKNTARLLGGPTIEHYHQAIALVVAETFEQARAAASLVQAHYRRNKGAYSLADEKQAVNQPPEDTPDKNVGDFDGAFTSAAVKIDATYTTPDQSHMAMEPHASMAVWDGNKLTLWTSNQMIDWCRTDLAKTLKVPVENVRIISPYIGGGFGGKLFLRSDALLAALAARAVKRPVKVMLPRPSIPNNTTHRPATLQHLRIGADQSGKITAISHESWSGNLPGGTPETAVQQSELLYAGANRHTGLRLATLDLPEGNAMRAPGEAPGLMALEIAIDELAEKAGIDPVEFRILNDTQVDPADPTRCFSRRQLIECLRTGADKFGWKQRNATPGQVRDGEWLVGHGVAAGFRNNLLEKSGARVHLEQNGTVTVETDMTDIGTGSYTILAQTAAEMLGVPLEQVAVHLGDSSFPVSAGSGGQWGANTSTSGVYAACMKLREMIASAVGFDPEQSQFADGKITNGTRSATLHEATAGGRLTAEESIEFGTLSKEYQQSTFAGHFVEVGVHSATGEVRVRRMLAVCAAGRILNPKTARSQVIGAMTMGMGAALMEELAVDDRLGYFVNHDMAGYEVPVHADIPKQEVIFLDDTDPISSPMKAKGVGELGLCGVSAAIANAVYNATGIRVRDYPITLDKLLDKLPDVV	6.02 ± 1.7	1.06	–	6.1	–	–	–	–	4.29 ± 0.36	–	–	–
MKFKTNKLSLNLVLASSLLAASIPAFAVTGDTDQPIHIESDQQSLDMQGNVVTFTGNVIVTQGTIKINADKVVVTRPGGEQGKEVIDGYGKPATFYQMQDNGKPVEGHASQMHYELAKDFVVLTGNAYLQQVDSNIKGDKITYLVKEQKMQAFSDKGKRVTTVLVPSQLQDKNNKGQTPAQKKGN [P0ADV1]	5.44 ± 0.34	–	3.06 ± 0.23	5.6321 ± 0.0032	10.5 ± 0.36	9.99 ± 1.6	5.79 ± 0.07	11.8 ± 0.99	6.48 ± 1.1	6.38 ± 0.74	6.18 ± 0.62	5.73 ± 0.082
MKFVKYFLILAVCCILLGAGSIYGLYRYIEPQLPDVATLKDVRLQIPMQIYSADGELIAQYGEKRRIPVTLDQIPPEMVKAFIATEDSRFYEHHGVDPVGIFRAASVALFSGHASQGASTITQQLARNFFLSPERTLMRKIKEVFLAIRIEQLLTKDEILELYLNKIYLGYRAYGVGAAAQVYFGKTVDQLTLNEMAVIAGLPKAPSTFNPLYSMDRAVARRNVVLSRMLDEGYITQQQFDQTRTEAINANYHAPEIAFSAPYLSEMVRQEMYNRYGESAYEDGYRIYTTITRKVQQAAQQAVRNNVLDYDMRHGYRGPANVLWKVGESAWDNNKITDTLKALPTYGPLLPAAVTSANPQQATAMLADGSTVALSMEGVRWARPYRSDTQQGPTPRKVTDVLQTGQQIWVRQVGDAWWLAQVPEVNSALVSINPQNGAVMALVGGFDFNQSKFNRATQALRQVGSNIKPFLYTAAMDKGLTLASMLNDVPISRWDASAGSDWQPKNSPPQYAGPIRLRQGLGQSKNVVMVRAMRAMGVDYAAEYLQRFGFPAQNIVHTESLALGSASFTPMQVARGYAVMANGGFLVDPWFISKIENDQGGVIFEAKPKVACPECDIPVIYGDTQKSNVLENNDVEDVAISREQQNVSVPMPQLEQANQALVAKTGAQEYAPHVINTPLAFLIKSALNTNIFGEPGWQGTGWRAGRDLQRRDIGGKTGTTNSSKDAWFSGYGPGVVTSVWIGFDDHRRNLGHTTASGAIKDQISGYEGGAKSAQPAWDAYMKAVLEGVPEQPLTPPPGIVTVNIDRSTGQLANGGNSREEYFIEGTQPTQQAVHEVGTTIIDNGEAQELF	5.593 ± 0.05	5.49 ± 0.056	3.35 ± 0.36	5.7 ± 0.38	10.82 ± 0.022	10.2 ± 0.59	4.46 ± 0.3	7.61 ± 0.27	6.37 ± 1.3	5.4453 ± 0.0032	5.3 ± 0.31	5.08 ± 0.37
MKFWRPGITGKLFLAIFATCIVLLISMHWAVRISFERGFIDYIKHGNEQRLQLLSDALGEQYAQHGNWRFLRNNDRFVFQILRSFEHDNSEDKPGPGMPPHGWRTQFWVVDQNNKVLVGPRAPIPPDGTRRPILVNGAEVGAVIASPVERLTRNTDINFDKQQRQTSWLIVALATLLAALATFLLARGLLAPVKRLVDGTHKLAAGDFTTRVTPTSEDELGKLAQDFNQLASTLEKNQQMRRDFMADISHELRTPLAVLRGELEAIQDGVRKFTPETVASLQAEVGTLTKLVDDLHQLSMSDEGALAYQKAPVDLIPLLEVAGGAFRERFASRGLKLQFSLPDSITVFGDRDRLMQLFNNLLENSLRYTDSGGSLQISAGQRDKTVRLTFADSAPGVSDDQLQKLFERFYRTEGSRNRASGGSGLGLAICLNIVEAHNGRIIAAHSPFGGVSITVELPLERDLQREV	6.52 ± 0.079	6.22 ± 0.26	3.33 ± 0.098	–	11.3 ± 2.3	12.9 ± 0.13	6.86 ± 0.52	12.1 ± 1.4	6.08 ± 0.73	6.4 ± 0.69	5.49 ± 0.43	6.23 ± 0.92
MKGGKRVQTARPNRINGEIRAQEVRLTGLEGEQLGIVSLREALEKAEEAGVDLVEISPNAEPPVCRIMDYGKFLYEKSKSSKEQKKKQKVIQVKEIKFRPGTDEGDYQVKLRSLIRFLEEGDKAKITLRFRGREMAHQQIGMEVLNRVKDDLQELAVVESFPTKIEGRQMIMVLAPKKKQ [P0A707]	5.98 ± 0.11	5.66 ± 0.61	3.35 ± 0.084	5.555 ± 0.039	10.5 ± 0.76	10.9 ± 1.7	4.89 ± 0.27	10.4 ± 0.88	6.492 ± 0.032	5.02 ± 0.54	5.12 ± 0.1	4.69 ± 0.57
MKGRLLDAVPLSSLTGVGAALSNKLAKINLHTVQDLLLHLPLRYEDRTHLYPIGELLPGVYATVEGEVLNCNISFGGRRMMTCQISDGSGILTMRFFNFSAAMKNSLAAGRRVLAYGEAKRGKYGAEMIHPEYRVQGDLSTPELQETLTPVYPTTEGVKQATLRKLTDQALDLLDTCAIEELLPPELSQGMMTLPEALRTLHRPPPTLQLSDLETGQHPAQRRLILEELLAHNLSMLALRAGAQRFHAQPLSANDTLKNKLLAALPFKPTGAQARVVAEIERDMALDVPMMRLVQGDVGSGKTLVAALAALRAIAHGKQVALMAPTELLAEQHANNFRNWFAPLGIEVGWLAGKQKGKARLAQQEAIASGQVQMIVGTHAIFQEQVQFNGLALVIIDEQHRFGVHQRLALWEKGQQQGFHPHQLIMTATPIPRTLAMTAYADLDTSVIDELPPGRTPVTTVAIPDTRRTDIIDRVHHACITEGRQAYWVCTLIEESELLEAQAAEATWEELKLALPELNVGLVHGRMKPAEKQAVMASFKQGELHLLVATTVIEVGVDVPNASLMIIENPERLGLAQLHQLRGRVGRGAVASHCVLLYKTPLSKTAQIRLQVLRDSNDGFVIAQKDLEIRGPGELLGTRQTGNAEFKVADLLRDQAMIPEVQRLARHIHERYPQQAKALIERWMPETERYSNA	5.83 ± 0.22	5.05 ± 0.14	–	6.17 ± 0.47	10.5 ± 0.46	8.73 ± 0.86	6.25 ± 0.072	11.3 ± 0.53	5.32 ± 0.16	5.74 ± 0.61	5.01 ± 0.36	4.91 ± 0.11
MKGSYKSRWVIVIVVVIAAIAAFWFWQGRNDSRSAAPGATKQAQQSPAGGRRGMRSGPLAPVQAATAVEQAVPRYLTGLGTITAANTVTVRSRVDGQLIALHFQEGQQVKAGDLLAEIDPSQFKVALAQAQGQLAKDKATLANARRDLARYQQLAKTNLVSRQELDAQQALVSETEGTIKADEASVASAQLQLDWSRITAPVDGRVGLKQVDVGNQISSGDTTGIVVITQTHPIDLVFTLPESDIATVVQAQKAGKPLVVEAWDRTNSKKLSEGTLLSLDNQIDATTGTIKVKARFNNQDDALFPNQFVNARMLVDTEQNAVVIPTAALQMGNEGHFVWVLNSENKVSKHLVTPGIQDSQKVVIRAGISAGDRVVTDGIDRLTEGAKVEVVEAQSATTPEEKATSREYAKKGARS	6.33 ± 0.75	–	–	6.25 ± 0.65	12.3 ± 0.27	13.2 ± 0.32	5.8716 ± 0.00037	10.5 ± 0.89	6.148 ± 0.046	–	6.07 ± 0.51	6.1255 ± 0.0044
